From US20210079080A1 (Hoffmann-La Roche, published 2021)
Substitutions are numbered along the chain they refer to.

Key:
[1] = target: T1, VEGF-121-His (inhouse production) (human, UniProt P15692 207-395); test: SPR (Biacore), hVEGF-A121 captured by anti-His antibody, Fab injected, 37° C
T1 construct: His-tagged human VEGF-A121 used in the ELISAs and (captured by an anti-His antibody) in SPR; also called hVEGF-A121; his VEGF; not shown: His tag
T1 sequence: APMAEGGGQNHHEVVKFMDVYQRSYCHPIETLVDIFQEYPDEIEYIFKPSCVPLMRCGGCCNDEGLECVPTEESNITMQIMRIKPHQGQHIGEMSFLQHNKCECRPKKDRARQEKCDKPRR
Experimental: (§1) The surface was regenerated by injecting 10 mM Glycine pH 1.5 for 60s. […] Rate constants were calculated using the Langmuir 1:1 binding model within the Biacore® Evaluation software.
(§2) The affinity of the antibodies was determined by SPR using the same methods as described in Example 2. All Fab fragments of antibodies of the invention as listed in table 1 and table 5 were tested.

[2] = target: T1, VEGF-121-His (inhouse production); test: as above; remark: listed apart in the source
Experimental: as §1
(§3) The affinity of the antibodies was determined by SPR using the same methods as described in Example 2. All Fab fragments as listed in table 1 and table 2 were tested.

[3] = target: T1, VEGF-121-His (inhouse production); test: Biacore, Fab stressed 2 w/37° C./pH 7.4
Experimental: (§4) Antibody samples were formulated in 20 mM His/HisCl, 140 mM NaCl, pH 6.0, and were split into three aliquots: one aliquot was re-buffered into PBS, respectively, and two aliquots were kept in the original formulation. The PBS aliquot and one His/HisCl aliquot were incubated for 2 weeks (2 w) at 40° C. (His/NaCl) or 37° C. (PBS) in 1 mg/ml, the PBS sample was incubated further for total 4 weeks (4 w). The third control aliquot sample was stored at −80° C.

[4] = target: T1, VEGF-121-His (inhouse production); test: SPR (Biacore), hVEGF-A121 captured by anti-His antibody, Fab injected, 25° C
Experimental: as §1, §2

[5] = target: T1, VEGF-121-His (inhouse production); test: direct ELISA on plate-coated VEGF-121-His
Experimental: After washing 3 times with 90 μl/well PBST-buffer (bidest water, 10×PBS Roche #11666789001+0.1% Tween® 20) blocking buffer (bidest water, 10×PBS Roche #11666789001+2% Bovine Serum Albumin Fraction V, fatty acid free, Roche, #10735078001+0.05% Tween® 20) was added 90 μl/well and incubated for 1 h at room temperature. […] After incubation for 1 h at room temperature, plates were again washed 3 times with 90 μl/well PBST-buffer. […] After washing 3 times with 90 μl A PBST-buffer, 25 μl TMB (Roche, #11 835 033 001) was added to each well. After 3 min incubation at RT, signals were detected at 370 nm/492 nm on a Tecan Safire 2 Reader.

[6] = target: T1, VEGF-121-His (inhouse production); test: Biacore, Fab stressed 4 w/37° C./pH 7.4
Experimental: as §4

human VEGF-A121 = target: T2, human VEGF-A121 (human, UniProt P15692 207-395); test: cell-based or functional assay
T2 sequence: T1 sequence

[7] = target: T1, VEGF-121-His (inhouse production); test: inhibition ELISA: antibody titrated against 0.7 nM VEGF-121-His; blocked partner plate-bound biotinylated VEGF-R2; anti-His POD readout
Experimental: Plates were incubated for 1 h at room temperature. […] Plates were incubated for 1 h at room temperature. […] After washing 3 times with 90 μl/well PB ST-buffer, 25 μl/well detection antibody (anti His POD, Bethyl, #A190-114P, 1:12000) in 1×OSEP was added. After incubation for 1 h at room temperature plates were washed 3 times with 90 μl PBST-buffer. 25 μl TMB (Roche, #11 835 033 001) was added to all wells simultaneously. After 10 min incubation at room temperature, signals were detected at 370 nm/492 nm on a Tecan Safire 2 Reader.

[8] = target: T1, VEGF-121-His (inhouse production); test: Biacore, Fab stressed 2 w/40° C./pH 6.0
Experimental: as §4

[9] = target: T1, VEGF-121-His (inhouse production); test: inhibition ELISA: antibody titrated against 0.4 nM VEGF-121-His; blocked partner plate-bound biotinylated VEGF-R2; anti-His POD readout
[10] = target: T1, VEGF-121-His (inhouse production); test: SPR (Biacore), hVEGF-A121 captured by anti-His antibody, Fab injected, 25° C; remark: listed apart in the source
Experimental: as §1, §3

[11] = target: T1, VEGF-121-His (inhouse production); test: inhibition ELISA: antibody titrated against 0.7 nM VEGF-121-His; blocked partner plate-bound biotinylated VEGF-R1; anti-His POD readout

B1: VEGF-0113 Fab fragment (Fab, V domains shown)
VH: EVQLVESGGGLVQPGGSLRLSCAASGFTFTNYAMTWVRQAPGKGLEWVSSIGNGPGIYTYYADSVKGRFTISRDNSKNTLYLQMNSLRAEDTAVYYCAKGDNLFDSWGPGTLVTVSS
VL: DIQMTQSPASLSASVGDRVTITCRASQSIYSSLNWYQQKPGKAPKLLIYASTLQSGVPSRFSGSASGTDFTLTISSLQPEDVATYYCQQYQNFPRTFGQGTKLEIKR
notes: Variant of VEGF-0089 (G to P at position 6 of H-CDR2); Fab with rabbit derived CLkappa and CH1
Kd [1]: 0.029 nM | Kd [2]: 0.017 nM | VEGF-binding activity after stress (relative active concentration, normalized to unstressed aliquot) [3]: 103 | Kd [4]: 0.022 nM | EC50 (read off the curve) [5]: ~0.3 nM | VEGF-binding activity after stress (relative active concentration, normalized to unstressed aliquot) [6]: 101 | IC50 in reporter gene assay (HEK293-NFAT-RE-Luc2P/KDR cells, luminescence, 25 ng/ml VEGF-A121) (human VEGF-A121): 0.63 nM | IC50 (read off the curve) [7]: ~2 nM | VEGF-binding activity after stress (relative active concentration, normalized to unstressed aliquot) [8]: 103 | IC50 (read off the curve) [9]: ~0.2 nM | Kd [10]: 0.021 nM

B2: VEGF-P1AE3520 Fab fragment (Fab, V domains shown)
VH: B1 VH with S76W
VL: B1 VL
Kd [1]: 0.039 nM | VEGF-binding activity after stress (relative active concentration, normalized to unstressed aliquot) [3]: 102 | Kd [4]: 0.031 nM | VEGF-binding activity after stress (relative active concentration, normalized to unstressed aliquot) [6]: 101 | VEGF-binding activity after stress (relative active concentration, normalized to unstressed aliquot) [8]: 100

B3: VEGF-0114 Fab fragment (Fab, V domains shown)
VH: EVQLVESGGGLVQPGGSLRLSCAASGFTFTNYAMTWVRQAPGKGLEWVSSIGSGGFYTYYADSVKGRFTISRDNSKNTLYLQMNSLRAEDTAVYYCAKGDNLFDSWGPGTLVTVSS
VL: B1 VL
notes: Fab with rabbit derived CLkappa and CH1; also called VEGR-0114 Fab
Kd [1]: 0.054 nM | Kd [2]: 0.056 nM | VEGF-binding activity after stress (relative active concentration, normalized to unstressed aliquot) [3]: 102 | Kd [4]: 0.05 nM | EC50 (read off the curve) [5]: ~0.3 nM | VEGF-binding activity after stress (relative active concentration, normalized to unstressed aliquot) [6]: 99 | IC50 in reporter gene assay (HEK293-NFAT-RE-Luc2P/KDR cells, luminescence, 25 ng/ml VEGF-A121) (human VEGF-A121): 1.34 nM | VEGF-binding activity after stress (relative active concentration, normalized to unstressed aliquot) [8]: 99 | IC50 (read off the curve) [9]: ~0.3 nM | Kd [10]: 0.055 nM

B4: VEGF-P1AE3521 Fab fragment (Fab, V domains shown)
VH: B3 VH with S75W
VL: B1 VL
Kd [1]: 0.061 nM | VEGF-binding activity after stress (relative active concentration, normalized to unstressed aliquot) [3]: 103 | Kd [4]: 0.032 nM | VEGF-binding activity after stress (relative active concentration, normalized to unstressed aliquot) [6]: 99 | VEGF-binding activity after stress (relative active concentration, normalized to unstressed aliquot) [8]: 101

B5: L3H6 Fab fragment (Fab, V domains shown)
VH: QVQLVQSGAEVKKPGESLKISCKGSGYSFTSYWIGWVRQMPGKGLEWMGIIYPGDSDTRYSPSFQGQVTISADKSISTAYLQWSSLKASDTAMYYCARQGTHNRKIWGQGTMVTVSS
VL: QAVVTQEPSLTVSPGGTVTLTCASSTGAVTSGNYPNWFQQRPGQPPRALIYSTSNKHSWTPARFSGSLLGGKAALTLSGAQPEDEAEYYCRLSYDLARPVFGGGTKLTVLG
notes: Prior art antibody disclosed in WO 2012089176, made here as Fab
Kd [2]: 4.52 nM | EC50 (read off the curve) [5]: ~0.3 nM | Kd [10]: 3.36 nM

B6: r84 full length IgG1 antibody (antibody, V domains shown)
VH: QVQLVQSGAEVKKPGASVKVSCKASGGTFSSYAISWVRQAPGQGLEWMGGFDPEDGETIYAQKFQGRVTMTEDTSTDTAYMELSSLRSEDTAVYYCATGRSMVRGVIIPFNGMDVWGQGTTVTVSS
VL: not shown
notes: Full length IgG1; also called r84 IgG1
binding result [5]: binds

B7: r84 Fab fragment (Fab, V domains shown)
VH: B6 VH
VL: not shown
notes: Prior art antibody disclosed in WO 2009060198, made here as Fab
binding result [5]: binds

B8: HF2-1 Fab fragment (Fab, V domains shown)
VH: EVQLVESGGGLVQPGGSLRLSCAASNFVFRSHGMQWVRQAPGKGLEYVAGISSDGSWTGYGAAVEGRFTISRDDSKNTAYLQMNSLRAEDTAVYYCARDFSTGYGADSIDAWGQGTLVTVSS
VL: DIQMTQSPSSLSASVGDRVTITCSGGSDSAYGYGWYQQKPGKAPKTLIYWDDKRPSGVPSRFSGSRSGTDFTLTISSLQPEDFATYYCGAWEYSGGVGIFGQGTKVEIKR
notes: Prior art antibody disclosed in EP3006465
Kd [1]: 0.574 nM | Kd [4]: 0.279 nM

B9: HF2-9 Fab fragment (Fab, V domains shown)
VH: B8 VH with N26M, V28R, F29I, T58F, G59R, Y60V, G61A
VL: B8 VL with D28M, S29E, A30P, Y31L
notes: as for B8
Kd [1]: 0.051 nM | IC50 (read off the curve) [11]: ~0.7 nM | Kd [4]: 0.024 nM

B10: HF2-11 Fab fragment (Fab, V domains shown)
VH: B8 VH with N26G, V28L, F29I, T58V, G59K, Y60V, G61A
VL: B8 VL with D28S, S29E, A30P, Y31L
notes: as for B8
Kd [1]: 0.062 nM | IC50 (read off the curve) [11]: ~1 nM | Kd [4]: 0.032 nM

B11: VEGF-P1AD8675 Fab fragment (Fab, V domains shown)
VH: B1 VH with P55G, S76W
VL: B1 VL
Kd [1]: 0.065 nM | VEGF-binding activity after stress (relative active concentration, normalized to unstressed aliquot) [3]: 102 | Kd [4]: 0.088 nM | VEGF-binding activity after stress (relative active concentration, normalized to unstressed aliquot) [6]: 109 | VEGF-binding activity after stress (relative active concentration, normalized to unstressed aliquot) [8]: 101
